Numbering of substitutions follows the chain as printed.
T1: recombinant human ROBO4 extracellular region polypeptide rROBO4-ECD (human, UniProt Q8WZ75 28-461)
T1 construct: Expressed from pEF6/V5-His-TOPO in FreeStyle 293-F cells; also called human ROBO4-ECD
T1 sequence: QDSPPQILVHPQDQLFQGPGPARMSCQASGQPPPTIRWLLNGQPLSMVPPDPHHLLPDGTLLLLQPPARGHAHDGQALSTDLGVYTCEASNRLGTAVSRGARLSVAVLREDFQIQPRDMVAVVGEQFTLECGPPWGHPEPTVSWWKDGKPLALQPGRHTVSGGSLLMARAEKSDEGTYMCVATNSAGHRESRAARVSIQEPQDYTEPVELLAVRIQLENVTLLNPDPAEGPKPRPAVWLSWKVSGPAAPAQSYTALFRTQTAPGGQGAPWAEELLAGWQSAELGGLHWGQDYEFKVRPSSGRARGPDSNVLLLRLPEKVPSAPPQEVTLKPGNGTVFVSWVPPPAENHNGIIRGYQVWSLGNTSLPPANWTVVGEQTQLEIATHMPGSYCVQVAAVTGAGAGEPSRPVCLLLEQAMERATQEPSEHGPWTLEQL

B1: humanized MAb1 antibody H-1040 (antibody, human IgG2, kappa, V domains shown)
VH: EVQLVESGGGLVQPGGSLRLSCAASGFTFSTYAMSWVRQAPGKGLEWVATISNGGTYTYYPDSVKGRFTISRDNAKNTLYLQMNSLRAEDTAVYYCARLIYYDYLDYWGQGTLVTVSS
VL: DIVMTQSPLSLPVTLGEPASISCRSSQSLENSNGNTYLNWYLQKPGQSPQLLIYRVSNRFSGVPDRFSGSGSGTDFTLKISRVEAEDVGVYYCLQVTHVPWTFGPGTKVDIKR
notes: Human IgG2 / kappa constant regions; also called hMAb1-H1-type heavy chain + hMAb1-L1-type light chain
B2: humanized MAb1 antibody H-2040 (antibody, human IgG2, kappa, V domains shown)
VH: B1 VH with G44R
VL: B1 VL
notes: Human IgG2 / kappa constant regions; also called hMAb1-H3-type heavy chain + hMAb1-L1-type light chain

Biological target: T1, recombinant human ROBO4 extracellular …
Assay: SPR (Biacore 3000), antibody captured via anti-human IgG on CM5, rROBO4-ECD as analyte, 1:1 model
Experimental: The dissociation constant between each antibody and rROBO4-ECD was determined with the antibody immobilized as a ligand and the antigen as an analyte using Biacore 3000 (manufactured by GE Healthcare Bio-Sciences Corp.). Approximately 80 RU of the antibody was bound via an anti-human IgG antibody (manufactured by GE Healthcare Bio-Sciences Corp.) immobilized on a sensor chip CM5 (manufactured by GE Healthcare Bio-Sciences Corp.) by an amine coupling method. The running buffer used was PBS containing 0.05% Surfactant P20. Dilution series solutions (0.1-200 nM) of the antigen were added at a flow rate of 30 μL/min. for 300 seconds onto the antibody-bound chip. Subsequently, a dissociation phase was monitored for 300 seconds. 3 M MgCl₂ was added thereto as a regeneration solution at a flow rate of 10 μL/min. for 30 seconds. Data was analyzed using the 1:1 binding model of analysis software (BIAevaluation Software, version 4.1) to calculate an association rate constant kon, a dissociation rate constant koff, and a dissociation constant (KD; KD=koff/kon).

Binder	Kd
B1	410 pM
B2	400 pM
